Laboratory results as given in publication PMC8556268.

T1: Biotinylated Tir-10_v2 (Biotin-Ahx-EHI-pY-DEVAAD)
T1 chain: EHIYDEVAAD

B1: free SH2 domain derived from the Nck adapter protein, P16333 282-376 (domain or fragment)
chain: WYYGKVTRHQAEMALNERGHEGDFLIRDSESSPNDFSVSLKAQGKNKHFKVQLKETVYCIGQRKFSTMEELVEHYKKAPIFTSEQGEKLYLVKHL
modifications: not checked
B2: tcTRP24_(8)SS-SH2_(2) (trimeric tcTRP24 particle with two Nck SH2 domains in each subunit, six in all), P16333 282-376; P16333 282-376 (protein)
chain: SELAARCLIILFQQLVELARLAIESGDEELLRRVSEWLEEVIKDMRRVVEQALREGNSELAARILIILFQQLVELARLAIESGDEELLRRVSEWLEEVIKDMRRVVEQALREGNWYYGKVTRHQAEMALNERGHEGDFLIRDSESSPNDFSVSLKAQGKNKHFKVQLKETVYCIGQRKFSTMEELVEHYKKAPIFTSEQGEKLYLVKHLSELAARILIILFQQLVELARLAIESGDEELLRRVSEWLEEVIKDMRRVVEQALREGNSELAARILIILFQQLVELARLAIESGDEELLRRVSEWLEEVIKDMRRVVEQALREGNSELAARILIILFQQLVELARLAIESGDEELLRRVSEWLEEVIKDMRRVVEQALREGNSELAARILIILFQQLVELARLAIESGDEELLRRVSEWLEEVIKDMRRVVEQALREGNWYYGKVTRHQAEMALNERGHEGDFLIRDSESSPNDFSVSLKAQGKNKHFKVQLKETVYCIGQRKFSTMEELVEHYKKAPIFTSEQGEKLYLVKHLSELAARILIILFQQLVELARLAIESGDEELLRRVSEWLEEVIKDMRRVVEQALREGNSELACRILIILFQQLVELARLAIESGDEELLRRVSEWLEEVIKDMRRVVEQALREGN
modifications: not checked

Target: T1, Biotinylated Tir-10_v2 …
Assay: SPR; Biacore T100, 25 °C, Series S SA chip, about 15 RUs of biotinylated peptide captured; 10 mM HEPES pH 7.4, 150 mM NaCl, 3 mM EDTA, 0.05% P20, 0.1 mg/mL BSA; analytes 60 nM free SH2, 10 nM tcTRP24_(8)SS-SH2_(2), 10 nM tcTRP24_(8)SS; 50 μL/minute

Binder | maximum binding response
B1 | 125 RUs
B2 | 123 RUs
